The target in data set [1] is T1, ZTF-17 (Caenorhabditis elegans, UniProt P45972 1-705).
T1 sequence: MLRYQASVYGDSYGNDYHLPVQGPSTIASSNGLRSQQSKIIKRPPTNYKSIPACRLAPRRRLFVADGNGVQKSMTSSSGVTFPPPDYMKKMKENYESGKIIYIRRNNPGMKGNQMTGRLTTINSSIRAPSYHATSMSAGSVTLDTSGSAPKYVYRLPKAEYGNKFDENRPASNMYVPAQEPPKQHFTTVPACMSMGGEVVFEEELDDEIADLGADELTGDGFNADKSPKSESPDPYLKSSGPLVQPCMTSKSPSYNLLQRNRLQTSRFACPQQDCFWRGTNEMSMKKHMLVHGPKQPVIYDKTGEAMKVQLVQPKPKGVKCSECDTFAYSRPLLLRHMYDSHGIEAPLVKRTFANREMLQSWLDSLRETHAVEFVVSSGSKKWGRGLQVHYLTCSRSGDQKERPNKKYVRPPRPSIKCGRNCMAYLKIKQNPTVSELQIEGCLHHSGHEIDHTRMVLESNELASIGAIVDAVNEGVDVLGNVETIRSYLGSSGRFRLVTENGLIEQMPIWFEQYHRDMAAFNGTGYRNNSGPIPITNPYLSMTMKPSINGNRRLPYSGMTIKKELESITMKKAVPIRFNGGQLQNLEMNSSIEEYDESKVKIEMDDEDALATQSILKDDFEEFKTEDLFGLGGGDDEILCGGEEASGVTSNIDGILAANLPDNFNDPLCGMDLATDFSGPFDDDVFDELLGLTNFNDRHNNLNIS
Briefly: competition; cold competitor vs YF4-2; 50 mM KCl, 20 mM HEPES pH 7.9, 0.2 mM EDTA, 0.5 mM DTT, 3 mM MgCl2, 1 ug poly(dI-dC), 0.5 ug/ul BSA, 0-800 ng protein, 20 ul, 20 min on ice (4 C). To be noted: protein: recombinant; tags: N-terminal 6His (pQE-80L); blunt.

The target in data set [2] is T1, ZTF-17. Briefly: EMSA; 50 mM KCl, 20 mM HEPES pH 7.9, 0.2 mM EDTA, 0.5 mM DTT, 3 mM MgCl2, 1 ug poly(dI-dC), 0.5 ug/ul BSA, 0-800 ng protein, 20 ul, 20 min on ice (4 C). To be noted: protein: recombinant; tags: N-terminal 6His (pQE-80L); label: 32P; blunt.
The target in data set [3] is T1, ZTF-17. Briefly: EMSA; also competes vs YF4-2; 50 mM KCl, 20 mM HEPES pH 7.9, 0.2 mM EDTA, 0.5 mM DTT, 3 mM MgCl2, 1 ug poly(dI-dC), 0.5 ug/ul BSA, 0-800 ng protein, 20 ul, 20 min on ice (4 C). To be noted: protein: recombinant; tags: N-terminal 6His (pQE-80L); label: 32P (probe); blunt. (In general: In EMSA bound probe runs differently from free probe, usually more slowly.)

A further data set addresses ALR-1 (Caenorhabditis elegans, UniProt Q21836 1-362). The data set can be described thus: EMSA; self competes; 50 mM KCl, 20 mM HEPES pH 7.9, 0.2 mM EDTA, 0.5 mM DTT, 3 mM MgCl2, 1 ug poly(dI-dC), 0.5 ug/ul BSA, 0-800 ng protein, 20 ul, 20 min on ice (4 C). To be noted: protein: recombinant; tags: N-terminal 6His (pQE-80L); label: 32P; blunt.

ALR-1, sequence (Q21836 whole entry): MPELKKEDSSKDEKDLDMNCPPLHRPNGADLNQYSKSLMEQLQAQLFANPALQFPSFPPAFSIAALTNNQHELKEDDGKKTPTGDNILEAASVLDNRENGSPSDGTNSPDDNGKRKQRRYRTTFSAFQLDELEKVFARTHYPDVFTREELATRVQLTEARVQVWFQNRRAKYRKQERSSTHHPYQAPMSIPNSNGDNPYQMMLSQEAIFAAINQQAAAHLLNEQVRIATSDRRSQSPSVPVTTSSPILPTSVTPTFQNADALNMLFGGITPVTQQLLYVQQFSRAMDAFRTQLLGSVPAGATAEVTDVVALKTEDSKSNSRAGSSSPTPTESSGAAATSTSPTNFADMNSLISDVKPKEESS

B1: YF4-3 (dsDNA)
DNA 1: GAGCAAGAGATGTGCTCTCGGCTCCACGAACCTCTTTGATCTATGCCGACAGTGGGGGAGATTGGAGAAGAAGCATGCTCCACCCTTCACGTGTATCAGTACG
DNA 2: CGTACTGATACACGTGAAGGGTGGAGCATGCTTCTTCTCCAATCTCCCCCACTGTCGGCATAGATCAAAGAGGTTCGTGGAGCCGAGAGCACATCTCTTGCTC
For the molecule B1, the binding result with ZTF-17 [1] is recorded as “no binding”.

B2: YF4-2 (dsDNA)
DNA 1: GAGCAAGAGATGTGCTCTCGGCTCCACGAACCTCTTTGATCTATGCCGACAGTGGGGGAGATTGGAGAAGAAGCATGCTCCACCCTTCACGTGTATCAGTACGTCTGCGTCTTCTTGTGCGTGCCGCCCGGATTAGAAGACATGAAGTGGGAGGGCGATAGAGGAAATTCCGATGGCAATACCAAC
DNA 2: GTTGGTATTGCCATCGGAATTTCCTCTATCGCCCTCCCACTTCATGTCTTCTAATCCGGGCGGCACGCACAAGAAGACGCAGACGTACTGATACACGTGAAGGGTGGAGCATGCTTCTTCTCCAATCTCCCCCACTGTCGGCATAGATCAAAGAGGTTCGTGGAGCCGAGAGCACATCTCTTGCTC
Take B2: the binding result with ZTF-17 [2] is on record as “binds”.

B3: YF4-4 (dsDNA)
DNA 1: GCTCCACCCTTCACGTGTATCAGTACGTCTGCGTCTTCTTGTGCGTGCCGCCCGGATTAGAAGACATGAAGTGGGAGGGCGATAGAGGAAATTCCGATGGCAATACCAAC
DNA 2: GTTGGTATTGCCATCGGAATTTCCTCTATCGCCCTCCCACTTCATGTCTTCTAATCCGGGCGGCACGCACAAGAAGACGCAGACGTACTGATACACGTGAAGGGTGGAGC
As to B3, in the data set with ZTF-17 [3], the binding result is recorded as “binds”.

B4: ECR2 (dsDNA)
DNA 1: CCCATATGCTTCCTGCTGTGTGTGGCACGAGCGCCAATAA
DNA 2: TTATTGGCGCTCGTGCCACACACAGCAGGAAGCATATGGG
As to B4, the binding result with ALR-1 was “binds”.

Values taken from publication PMC4051164, “Multiple transcription factors directly regulate Hox gene lin-39 expression in ventral hypodermal cells of the C. elegans embryo and larva, including the hypodermal fate regulators LIN-26 and ELT-6”.
